The series deals with the molecule itself. The experiment in a line: atomic force microscopy; alternating contact mode on DOPC/DOPS (1:1) supported lipid bilayers on mica, 10 mM TRIS pH 7.4, 140 mM NaCl, 2 mM Ca2+; 40 nM ANXA4 added with 40 nM ANXA1-GFP or ANXA2-GFP; 250 nm x 250 nm scans of the lower (ANXA4) domains, Fourier transform.

The values that follow come from article PMC9800579, “Interplay of membrane crosslinking and curvature induction by annexins” (Scientific Reports, 2022).

By stoichiometry N is commonly meant the number of molecules, sites or subunits per partner or assembly.

B1: annexin A4 (natural protein, UniProt P09525 1-319, looked up)
chain: MATKGGTVKAASGFNAMEDAQTLRKAMKGLGTDEDAIISVLAYRNTAQRQEIRTAYKSTIGRDLIDDLKSELSGNFEQVIVGMMTPTVLYDVQELRRAMKGAGTDEGCLIEILASRTPEEIRRISQTYQQQYGRSLEDDIRSDTSFMFQRVLVSLSAGGRDEGNYLDDALVRQDAQDLYEAGEKKWGTDEVKFLTVLCSRNRNHLLHVFDEYKRISQKDIEQSIKSETSGSFEDALLAIVKCMRNKSAYFAEKLYKSMKGLGTDDNTLIRVMVSRAEIDMLDIRAHFKRLYGKSLYSFIKGDTSGDYRKVLLVLCGGDD
notes: annexin A4 (ANXA4), unlabelled recombinant protein from a PCR-amplified cDNA in pETM11-SUMO3; the introduction gives 320 amino acids for ANXA4 (cited); also called ANXA4; recombinant ANXA4; source: E. coli BL21 (DE3), purified (Ni-NTA IMAC, Superdex 200 SEC); not shown: 6xHis, N-terminal, cleaved; SUMO3 domain, N-terminal, cleaved
Regarding B1, the “stoichiometry N” value was determined as 3.
